According to patent US20220324953A1 (JIANGSU HENGRUI MEDICINE, published 2022):
Numbering of substitutions follows the chain as printed.

T1: human CTGF (antigen of the Biacore assays) (human, UniProt P29279 27-349)
T1 construct: also called antigen human CTGF; human CTGF protein
T1 sequence (looked up): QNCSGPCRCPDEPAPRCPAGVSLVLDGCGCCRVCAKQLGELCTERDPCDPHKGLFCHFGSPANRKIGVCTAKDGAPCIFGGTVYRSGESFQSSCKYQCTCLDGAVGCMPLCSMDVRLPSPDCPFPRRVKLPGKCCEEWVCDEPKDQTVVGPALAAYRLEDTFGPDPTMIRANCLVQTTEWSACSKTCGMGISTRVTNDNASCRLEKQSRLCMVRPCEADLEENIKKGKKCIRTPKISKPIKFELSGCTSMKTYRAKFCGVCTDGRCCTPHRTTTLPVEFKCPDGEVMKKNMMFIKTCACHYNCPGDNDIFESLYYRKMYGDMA

T2: human CTGF protein (R&D, Cat No. 9190-CC) (human, UniProt P29279 27-349)
T2 construct: Bought protein; also called CTGF recombinant protein; CTGF (R&D)
T2 sequence: T1 sequence (looked up) with H57D

T3: mouse CTGF (antigen of the Biacore assay) (mouse, UniProt P29268 26-348)
T3 construct: also called mouse CTGF protein
T3 sequence (looked up): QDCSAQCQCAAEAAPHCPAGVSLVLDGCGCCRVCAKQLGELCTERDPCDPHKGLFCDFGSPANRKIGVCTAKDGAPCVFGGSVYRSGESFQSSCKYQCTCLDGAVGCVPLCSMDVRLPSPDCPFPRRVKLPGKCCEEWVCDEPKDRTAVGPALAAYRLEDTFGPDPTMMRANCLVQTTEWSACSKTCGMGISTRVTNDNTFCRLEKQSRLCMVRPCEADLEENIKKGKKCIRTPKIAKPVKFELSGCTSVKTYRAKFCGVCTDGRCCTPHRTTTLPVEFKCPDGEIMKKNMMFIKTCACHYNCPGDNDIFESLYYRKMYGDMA

B1: chimeric antibody Ch147 (antibody, human IgG1, kappa, V domains shown)
VH: EVQLVESGGGLVQPEGSLKLSCAASGFSFNTYAMNWVRQAPGKGLEWVARIRTKSNNYATYYADSVKDRFTISRDDSESMLYLQMNNLKTEDTAMYYCVETGFAYWDQGTLVTVSA
VL: QIVLTQSPAIMSASPGEKVTITCSASSSVSYMHWFQQKPGTSPKLWIYSTSNLASGVPARFSGSGSGTSYSLTISRMEAEDAATYYCQQRSSYPLTFGAGTKLELKR
B2: chimeric antibody Ch164 (antibody, human IgG1, lambda, V domains shown)
VH: QVQLKQSGPGLVQPSQSLSITCTVSGFSLTTFGVHWIRQSPGKGLEWLGVIWRRGGTDYNAAFMSRLSITKDNSRSHVFFKMTSLQTDDSAIYYCARDGGFDYWGQGTTLTVSS
VL: QAVVTQESALTTSPGGTVILTCRSSIGAVTTSNYANWVQEKPDHLFTGLIGGTSNRAPGVPVRFSGSLIGDKAALTITGAQAEDDAMYFCALWYSTHYVFGGGTKVTVLG
B3: chimeric antibody Ch95 (antibody, human IgG1, kappa, V domains shown)
VH: EVLLQQSGPVLVKPGPSVKISCKASGFTFTNYDIHWVKQSHGKSLEWIGLVYPYNGGTAYNQKFKDKATLTFDTSSSTAYMELNSLTSEDSAVYYCARWGLIPGTTSYFDVWGTGTTVTVSS
VL: QIVLSQSPPILSASPGEKVTMTCRASSSVSYIHWYQQKPRSSPKPWIYATSNLASGVPARFSGSGSGTSYSLTISRVEAEDAATYYCQQWNSNPWTFGGGTRLEIKR
B4: Hu95-41wk (antibody, human IgG1, kappa, V domains shown)
VH: EVQLVQSGAEVKKPGASVKVSCKASGFTFTNYDIHWVKQAPGQRLEWIGLVYPYNGGTAYNQKFKDKATLTFDTSASTAYMELSSLRSEDTAVYYCARWGLIPGTTSYFDVWGQGTTVTVSS
VL: EIVLTQSPATLSLSPGERATLSCRASSSVSYIHWYQQKPGQAPRPWIYATSNLASGIPARFSGSGSGTDYTLTISRLEPEDFAVYYCQQWNSNPWTFGGGTKVEIKR
B5: Hu95-21wk (antibody, human IgG1, kappa, V domains shown)
VH: B4 VH with K38R, K67R
VL: B4 VL
B6: Hu95-31wk (antibody, human IgG1, kappa, V domains shown)
VH: B4 VH with I48M, A68V
VL: B4 VL
B7: Hu95-42wk (antibody, human IgG1, kappa, V domains shown)
VH: B4 VH
VL: B4 VL with A42S, I57V, D69S
B8: Hu95-51yk (antibody, human IgG1, kappa, V domains shown)
VH: B4 VH with K23R, D33A, I48M, N55T, A68V, L101M, T106N
VL: B4 VL

Target: T1, human CTGF (antigen of the Biacore …)
Assay: Biacore, antibody captured on Protein A, CTGF in flow, 1:1 fit
Source text: (§1) A certain amount of each of the test antibodies was affinity-captured with Protein A biosensor chip (Cat. # 29127556, GE), and then a certain concentration of human or mouse CTGF was allowed to flow through the surface of the chip. The reaction signals were detected in real time with Biacore instrument to generate a binding and dissociation curve. After the dissociation was completed in each cycle, the biosensor chip was washed and regenerated with Glycine-HCl regeneration solution pH 1.5 (Cat. # BR-1003-54, GE). The running buffer for the assay was 1×HBS-EP buffer solution (Cat. # BR-1001-88, GE).

Point of comparison: B1, Kd 0.466 nM. Against it:
- B2 — 3.5-fold lower, 0.133 nM
- B3 — 8.3-fold higher, 3.85 nM
- B4 — 11-fold higher, 5.29 nM
- B5 — 16-fold higher, 7.39 nM
- B6 — 13-fold higher, 5.84 nM
- B7 — 12-fold higher, 5.74 nM
- B8 — 13-fold lower, 0.0358 nM

Point of comparison: B3, koff 0.0302 s⁻¹. Against it:
- B1 — 4.4-fold lower, 0.00693 s⁻¹
- B2 — 3.4-fold lower, 0.00883 s⁻¹
- B4 — within 1.5-fold, 0.0408 s⁻¹
- B5 — within 1.5-fold, 0.0303 s⁻¹
- B6 — within 1.5-fold, 0.0326 s⁻¹
- B7 — 1.6-fold lower, 0.0191 s⁻¹
- B8 — 30-fold lower, 0.00102 s⁻¹

Point of comparison: B4, kon 7.7e+06 M⁻¹ s⁻¹. Against it:
- B1 — 1.9-fold higher, 1.49e+07 M⁻¹ s⁻¹
- B2 — 8.6-fold higher, 6.62e+07 M⁻¹ s⁻¹
- B3 — within 1.5-fold, 7.85e+06 M⁻¹ s⁻¹
- B5 — 1.9-fold lower, 4.09e+06 M⁻¹ s⁻¹
- B6 — within 1.5-fold, 5.59e+06 M⁻¹ s⁻¹
- B7 — 2.3-fold lower, 3.32e+06 M⁻¹ s⁻¹
- B8 — 3.7-fold higher, 2.84e+07 M⁻¹ s⁻¹

Target: T2, human CTGF protein (R&D, Cat No. …)
Assay: ELISA, plate coated with CTGF (R&D 9190-CC)
Procedure: The binding activity of anti-human CTGF antibody to human CTGF protein was tested by ELISA assay and Biacore. A 96-well microtiter plate was directly coated with the CTGF recombinant protein. The signal strength upon the addition of the antibody was used to determine the binding activity of the antibody to CTGF. The specific experimental procedures were as follows:
The CTGF protein (R&D, Cat No. 9190-CC) was diluted with PBS, pH 7.4 (Shanghai Yuanpei, Cat No. B320) buffer to a concentration of 0.2 μg/ml, 50 μl/well of which was added into the 96-well microtiter plate (Corning, Cat No. CLS3590-100EA), and incubated in an incubator at 37° C. for 2 hours or at 4° C. overnight (16-18 hours). The liquid was removed, 250 μl/ well blocking solution (5% skim milk (BD skim milk, Cat No.232100) diluted in PBS) was added, and incubated in an incubator at 37° C. for 3 hours or at 4° C. overnight (16-18 hours) for blocking. After the blocking was finished, the blocking solution was removed, the plate was washed for 5 times with PBST buffer (PBS containing 0.1% Tween-20, pH 7.4), 50 μl/well of various concentrations of each of the test antibodies (antibodies purified from hybridoma or humanized antibodies) diluted with sample dilution solution were added, and incubated in an incubator at 37° C. for 1 hours. After the incubation was finished, the plate was washed for 3 times with PBST, 50 μl/well of HRP-labeled goat anti-mouse secondary antibody (Jackson Immuno Research, Cat No. 115-035-003) or goat anti-human secondary antibody (Jackson Immuno Research, Cat No. 109-035-003) diluted with sample dilution solution was added, and incubated at 37° C. for 1 hour. The plate was washed for 3 times with PBST, 50 μl/well of TMB chromogenic substrate (KPL, Cat No. 52-00-03) was added, incubated at room temperature for 5-10min, and 50 μl/well of 1 M H₂SO₄ was added to stop the reaction. The absorbance value was read by a microplate reader (Molecular Devices, VERSA max) at a wavelength of 450 nm, and the data was analyzed with GraphPad Prism 5. The binding of CTGF antibody to human CTGF protein was calculated as EC50 value.

B8 gave an EC50 of 0.08 nM.

Target: T4, Cynomolgus CTGF-Fc (fusion protein of cynomolgus CTGF coding region with Fc) (cynomolgus)
T4 construct: also called cyno-CTGF-mFc protein; cyno-CTGF protein with Fc tag
Assay: ELISA, cyno-CTGF-Fc captured by anti-mFc
Procedure: The binding activity of anti-monkey CTGF antibody to monkey CTGF protein was tested by ELISA assay. A 96-well microtiter plate was directly coated with anti-mFc protein, and then the cyno-CTGF protein with Fc tag was bound to the plate, and then the antibody was added. The signal strength upon the addition of the antibody was used to determine the binding activity of the antibody to cyno-CTGF. The specific experimental procedures were as follows:
The anti-mFc Protein (Sigma, Cat No. M4280) was diluted with PBS, pH 7.4 (Shanghai Yuanpei, Cat No. B320) buffer to a concentration of 2 μg/ml, which was added into the 96-well microtiter plate (Corning, Cat No. CLS3590-100EA) at 50 μl/well, and incubated in an incubator at 37° C. for 2 hours. The liquid was removed, 250 μl/well blocking solution (5% skim milk (BD skim milk, Cat No.232100) diluted in PBS) was added, and incubated in an incubator at 37° C. for 3 hours or at 4° C. overnight (16-18 hours) for blocking. After the blocking was finished, the blocking solution was removed, the plate was washed for 3 times with PBST buffer (PBS containing 0.1% Tween-20, pH 7.4), 50 μl of 1 μg/ml cyno-CTGF-mFc protein was added into each well, incubated in an incubator at 37° C. for 1 hour, and then the plate was washed for 3 times with PBST buffer (PBS containing 0.1% Tween-20, pH 7.4). 50 μl/well of various concentrations of each of the test antibodies (antibodies purified from hybridoma or humanized antibodies) diluted with sample dilution solution were added, and incubated in an incubator at 37° C. for 1 hours. After the incubation was finished, the plate was washed for 3 times with PBST, 50 μl/well of HRP-labeled goat anti-mouse secondary antibody (Jackson Immuno Research, Cat No. 115-035-003) or goat anti-human secondary antibody (Jackson Immuno Research, Cat No. 109-035-003) diluted with sample dilution solution was added, and incubated at 37° C. for 1 hour. The plate was washed for 5 times with PBST, 50 μl/well of TMB chromogenic substrate (KPL, Cat No. 52-00-03) was added, incubated at room temperature for 5-10 min, and 50 μl/well of 1 M H₂SO₄ was added to stop the reaction. The absorbance value was read by a microplate reader (Molecular Devices, VERSA max) at a wavelength of 450 nm, and the data was analyzed with GraphPad Prism 5. The binding of CTGF antibody to cyno CTGF protein was calculated as EC50 value.

T4 sequence (chain, as listed by the source limits assumed): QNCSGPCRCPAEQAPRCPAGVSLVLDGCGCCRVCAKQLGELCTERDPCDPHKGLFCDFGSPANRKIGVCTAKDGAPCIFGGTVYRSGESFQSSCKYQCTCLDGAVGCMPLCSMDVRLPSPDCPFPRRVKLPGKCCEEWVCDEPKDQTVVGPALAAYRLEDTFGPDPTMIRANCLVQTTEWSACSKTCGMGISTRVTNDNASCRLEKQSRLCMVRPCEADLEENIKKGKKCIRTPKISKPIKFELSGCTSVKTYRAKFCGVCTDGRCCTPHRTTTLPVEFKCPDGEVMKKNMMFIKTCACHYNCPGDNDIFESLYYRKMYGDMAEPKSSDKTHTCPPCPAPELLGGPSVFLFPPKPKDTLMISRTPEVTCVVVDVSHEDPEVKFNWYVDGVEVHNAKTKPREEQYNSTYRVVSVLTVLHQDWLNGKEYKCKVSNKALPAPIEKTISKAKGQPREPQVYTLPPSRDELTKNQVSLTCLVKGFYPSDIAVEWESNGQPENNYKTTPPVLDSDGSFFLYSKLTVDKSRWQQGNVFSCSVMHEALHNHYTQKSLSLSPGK

B8 was tested, and the EC50 was 0.059 nM.

Target: T3, mouse CTGF (antigen of the Biacore …)
Assay: Biacore, antibody captured on Protein A, mouse CTGF in flow, 1:1 fit
Source text: as §1

Point of comparison: B5, Kd 3.99 nM. Against it:
- B1 — 3.2-fold lower, 1.23 nM
- B2 — 49-fold lower, 0.0822 nM
- B3 — 2.3-fold lower, 1.71 nM
- B4 — 1.6-fold lower, 2.44 nM
- B6 — within 1.5-fold, 2.87 nM
- B7 — 1.6-fold lower, 2.42 nM
- B8 — 200-fold lower, 0.0202 nM

Point of comparison: B1, koff 0.0384 s⁻¹. Against it:
- B2 — 3.8-fold lower, 0.0101 s⁻¹
- B3 — 1.6-fold lower, 0.0235 s⁻¹
- B4 — within 1.5-fold, 0.0339 s⁻¹
- B5 — 1.8-fold lower, 0.0211 s⁻¹
- B6 — 1.7-fold lower, 0.0225 s⁻¹
- B7 — 2.8-fold lower, 0.0137 s⁻¹
- B8 — 74-fold lower, 0.000516 s⁻¹

Point of comparison: B8, kon 2.56e+07 M⁻¹ s⁻¹. Against it:
- B1 — within 1.5-fold, 3.12e+07 M⁻¹ s⁻¹
- B2 — 4.8-fold higher, 1.23e+08 M⁻¹ s⁻¹
- B3 — 1.9-fold lower, 1.38e+07 M⁻¹ s⁻¹
- B4 — 1.8-fold lower, 1.39e+07 M⁻¹ s⁻¹
- B5 — 4.8-fold lower, 5.29e+06 M⁻¹ s⁻¹
- B6 — 3.3-fold lower, 7.84e+06 M⁻¹ s⁻¹
- B7 — 4.5-fold lower, 5.66e+06 M⁻¹ s⁻¹
